Results reported in US20260097113A1 (Pfizer, published 2026).

Legend:
[1] = biological target: RSV A + RSV B bivalent composition (RSV subtype A; RSV subtype B); test: AM14 Fab titration by SEC; composition of Table 14; Annealing Temp Aggressive cycle
[2] = biological target: RSV A + RSV B bivalent composition (RSV subtype A; RSV subtype B); test: AM14 Fab titration by SEC; High-Slow 1 cycle; 8 M 40°C
[3] = biological target: RSV A + RSV B bivalent composition (RSV subtype A; RSV subtype B); test: AM14 Fab titration by SEC; Target cycle; 3 M 40°C
[4] = biological target: RSV A + RSV B bivalent composition (RSV subtype A; RSV subtype B); test: AM14 Fab titration by SEC; High-Slow 2 cycle; 8 M 40°C
[5] = biological target: T1, RSV F protein of subtype A comprising a polypeptide of SEQ ID NO: 1 and a polypeptide of SEQ ID NO: 2 (RSV subtype A, UniProt P11209 137-513; P03420 26-109); test: AM14 ELISA; F6 (pH 7, 0 mM NaCl, 4.5% sucrose); 1 wk 5°C
T1 construct: Stabilized prefusion F trimer made of three F2-F1 heterodimers; Produced recombinantly in CHO cells; also called RSV A; RSVA
T1 chain 1: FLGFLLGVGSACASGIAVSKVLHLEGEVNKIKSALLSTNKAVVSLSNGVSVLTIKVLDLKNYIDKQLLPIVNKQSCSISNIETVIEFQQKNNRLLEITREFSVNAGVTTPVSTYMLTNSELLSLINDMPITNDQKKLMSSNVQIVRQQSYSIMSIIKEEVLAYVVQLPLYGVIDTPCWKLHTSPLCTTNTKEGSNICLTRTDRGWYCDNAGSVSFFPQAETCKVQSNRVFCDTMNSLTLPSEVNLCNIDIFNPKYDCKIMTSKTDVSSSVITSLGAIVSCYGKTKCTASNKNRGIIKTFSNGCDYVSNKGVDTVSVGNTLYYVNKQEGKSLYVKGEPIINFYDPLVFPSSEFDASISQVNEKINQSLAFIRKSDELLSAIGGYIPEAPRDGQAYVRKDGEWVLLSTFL
T1 chain 2: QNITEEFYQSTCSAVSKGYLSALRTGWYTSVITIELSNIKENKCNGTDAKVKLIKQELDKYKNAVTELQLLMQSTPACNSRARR

[6] = biological target: T1, RSV F protein of subtype A comprising a …; test: AM14 ELISA; F18 (pH 7, 50 mM NaCl, 3% sucrose + 3% mannitol); 2 wk 25°C
[7] = biological target: T1, RSV F protein of subtype A comprising a …; test: AM14 ELISA; F17 (pH 7, 50 mM NaCl, 4.5% trehalose); T0
[8] = biological target: T1, RSV F protein of subtype A comprising a …; test: AM14 ELISA; F1 (pH 8, 100 mM NaCl, 0% sucrose); 1 wk 5°C
[9] = biological target: T2, RSV F protein comprising a polypeptide of SEQ ID NO: 3 and a polypeptide of SEQ ID NO: 4 (RSV subtype B, UniProt O36634 137-513; O36634 26-109); test: AM14 prefusion assay relative to standard; RSV B 480 µg/mL, 2% sucrose + 4% mannitol; post-lyo 2 months at 5°C
T2 construct: also called RSV B; RSVB
T2 chain 1: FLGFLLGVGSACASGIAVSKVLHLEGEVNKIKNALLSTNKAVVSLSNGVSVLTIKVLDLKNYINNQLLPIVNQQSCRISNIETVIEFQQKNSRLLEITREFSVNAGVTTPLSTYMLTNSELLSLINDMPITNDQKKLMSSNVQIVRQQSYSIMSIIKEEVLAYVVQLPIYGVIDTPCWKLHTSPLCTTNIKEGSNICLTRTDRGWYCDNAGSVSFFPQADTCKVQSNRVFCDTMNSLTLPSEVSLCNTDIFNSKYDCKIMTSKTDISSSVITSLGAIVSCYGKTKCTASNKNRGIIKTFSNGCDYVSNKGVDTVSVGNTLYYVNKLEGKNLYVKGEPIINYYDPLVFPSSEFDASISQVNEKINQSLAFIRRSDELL
T2 chain 2: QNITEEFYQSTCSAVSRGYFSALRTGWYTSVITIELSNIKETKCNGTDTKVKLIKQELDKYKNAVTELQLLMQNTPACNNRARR

[10] = biological target: T1, RSV F protein of subtype A comprising a …; test: AM14 ELISA; F2 (pH 8, 0 mM NaCl, 0% sucrose); 2 wk 25°C
[11] = biological target: T1, RSV F protein of subtype A comprising a …; test: AM14 ELISA; F1 (pH 8, 100 mM NaCl, 0% sucrose); 1 wk 25°C
[12] = biological target: T1, RSV F protein of subtype A comprising a …; test: AM14 ELISA; F14 (pH 7, 50 mM NaCl, 4.5% sucrose); 1 wk 5°C
[13] = biological target: T1, RSV F protein of subtype A comprising a …; test: AM14 ELISA; F5 (pH 6, 100 mM NaCl, 9.0% sucrose); T0
[14] = biological target: T1, RSV F protein of subtype A comprising a …; test: AM14 ELISA; F10 (pH 7, 50 mM NaCl, 4.5% sucrose); 2 wk 25°C

Row | Molecule | Prefusion Content (%) [1] | Prefusion Content (%) [2] | Prefusion Content (%) [3] | Prefusion Content (%) [4] | AM14 prefusion content (%), relative to standard [5] | AM14 prefusion content (%), relative to standard [6] | AM14 prefusion content (%), relative to standard [7] | AM14 prefusion content (%), relative to standard [8] | AM14 prefusion content (%), relative to standard [9] | AM14 prefusion content (%), relative to standard [10] | AM14 prefusion content (%), relative to standard [11] | AM14 prefusion content (%), relative to standard [12] | AM14 prefusion content (%), relative to standard [13] | AM14 prefusion content (%), relative to standard [14]
1 | AM14 Fab | 70% | 53% | 72% | 61% | – | – | – | – | – | – | – | – | – | –
2 | AM14 (trimeric prefusion specific antibody of the AM14 ELISA) (antibody, V domains shown, Antibody as used in the AM14 ELISA, detected with an HRP-labeled secondary antibody) VH: EVQLVESGGGVVQPGRSLRLSCAASGFSFSHYAMHWVRQAPGKGLEWVAVISYDGENTYYADSVKGRFSISRDNSKNTVSLQMNSLRPEDTALYYCARDRIVDDYYYYGMDVWGQGATVTVSS VL: DIQMTQSPSSLSASVGDRVTITCQASQDIKKYLNWYHQKPGKVPELLMHDASNLETGVPSRFSGRGSGTDFTLTISSLQPEDIGTYYCQQYDNLPPLTFGGGTKVEIKR | – | – | – | – | 101% | 78% | 86% | 96% | 101% | 56% | 112% | 85% | 91% | 81%
